The numbers were not newly measured in article PMC9949911, which cites them from elsewhere.

The data set concerns the target IL-18bp (Homo sapiens) (UniProt O95998).

Sequence of IL-18bp (Homo sapiens) (O95998 31-194): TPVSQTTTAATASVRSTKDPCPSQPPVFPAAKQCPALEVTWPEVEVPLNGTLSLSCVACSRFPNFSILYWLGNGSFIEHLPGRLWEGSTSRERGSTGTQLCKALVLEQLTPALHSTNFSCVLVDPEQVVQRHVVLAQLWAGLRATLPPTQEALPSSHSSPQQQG
Sequence of IL-18 (Q14116 37-193): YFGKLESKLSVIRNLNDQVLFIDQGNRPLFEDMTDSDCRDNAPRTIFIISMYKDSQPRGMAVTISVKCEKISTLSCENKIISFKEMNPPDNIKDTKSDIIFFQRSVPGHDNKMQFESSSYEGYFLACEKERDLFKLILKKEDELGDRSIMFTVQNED

One may read the Kd as the concentration at which binding is half-saturated. Turning to IL-18 (from UniProt Q14116), the Kd is 0.05 nM.
